The results in this text go back to US8198236B2, “Methods and compositions for the treatment of cancer” (Washington University, priority 2007, dated 2012).

Some results are limits rather than exact numbers.

Experiment [1] deals with T1, LRP6 (Homo sapiens, UniProt O75581).
T1 construct: expressed in transfected cells; host or cells: human HT1080 cells, retroviral vector pLNCX2
The experiment in a line: Cell surface Myc-DKK1 binding and immunodetection on LRP6-transduced HT1080 cells. The note with it: 1 μM Mesd, immunofluorescence. The source says:
Human DKK1 cDNA (clone MGC:868, IMAGE:3508222) was obtained from Invitrogen and subcloned into pcDNA3 (EcoRI/XbaI). To facilitate immunodetection, a c-Myc epitope was included at the C-terminus. The integrity of the subcloned DNA sequence was confirmed by DNA sequencing. Human DKK1-conditioned media were produced by transient transfection of HEK293 cells with pcDNADKK1-Myc in serum-free medium, and allowed to bind to LRP6-transduced HT1080 cells and control cells at room temperature for 60 minutes in the absence or presence of 1 μM Mesd. Cells were then fixed in 4% paraformaldehyde, labeled with anti-Myc monoclonal antibody and detected with Alexa-488 goat anti-mouse IgG. The immunofluorescence was detected by a laser-scanning confocal microscope (Olympus Fluoview 500).
(§1) RAP is a receptor antagonist for members of the LDLR family, and is able to inhibit the binding of most known ligands of the LDLR family members. DKK1 is an LRP6-specific ligand and antagonist. […] In these experiments, Serum-free conditioned medium was harvested from HEK293 cells transiently transfected with cDNA for human Myc-DKK1 and allowed to bind to LRP6-transduced HT1080 cells (B,C) and control cells (A) in the absence (A,B) or presence (C) of 1 μM Mesd. Cell-surface-bound Myc-tagged DKK proteins were fixed and detected by immunofluorescence staining with anti-Myc antibody. […]

Experiment [2] addresses T1, LRP6. The experiment in a line: 125I-DKK1 binding to LRP6. The note with it: 500 nM unlabeled, 125I-DKK1 5 nM, 3 hours at 4° C. The protocol:
(§2) Cells (2×10^5) were seeded into 12-well dishes 1 day prior to assay. Ligand-binding buffer (minimal Eagle's medium containing 0.6% BSA with a different concentration of radioligand, 0.6 ml/well) was added to cell monolayers, in the absence or the presence of 500 nM unlabeled RAP or 500 nM unlabeled Mesd, followed with incubation for 0-4 hours at 4° C. Thereafter, overlying buffer containing unbound ligand was removed, and cell monolayers were washed and lysed in low-SDS lysis buffer (62.5 mM Tris-HCl pH 6.8, 0.2% SDS, 10% v/glycerol) and counted.
as §1, with “antibody. (D) DKK1 binding to cell surface LRP6 is inhibited by Mesd. Binding of 125I-DKK1 (5 nM) to LRP6-transduced HT1080 cells or the control cells was carried out for 3 hours at 4° C. in the absence (total) or presence of 500 nM RAP or 500 nM Mesd.” for “antibody.”

Experiment [3] has as its target T1, LRP6. The experiment in a line: Competition for 125I-Mesd binding to cell surface LRP6. The protocol: To examine whether Mesd binds with high affinity to most members of the LDLR family at the cell surface, we performed cell surface ligand binding experiments with cells stably transduced with LRP6 cDNA. Human HT1080 cells, which express undetectable levels of LRP6, were transduced with a viral vector alone (pLNCX2) or with vector containing LRP6 cDNA (Li, Y., Oncogene 23: 9129-9135, 2004) and used for ^125I-Mesd binding (FIG. 1A). ^125I-Mesd (5 nM) reached maximal binding after 2 hours incubation at 4° C. with LRP6-expressing HT1080 cells (FIG. 1A).
as §2
We performed binding of 5 nM ^125I-Mesd (5 nM) to cell surface LRP6 in the presence of various concentrations of excess unlabeled RAP or 500 nM unlabeled Mesd (FIG. 8B). RAP inhibited ^125I-Mesd binding in a dose-dependent manner with ˜60% inhibition achieved with 500 nM RAP, whereas the same concentration of unlabeled Mesd inhibited >90% of ^125I-Mesd binding (FIG. 8B). […] The lower affinity of RAP to cell surface LRP6 may also contribute to its lower efficiency in inhibition of Mesd binding.
In FIG. 8A, binding of ^125I-RAP (5 nM) to LRP6-transduced HT1080 cells and the control cells was carried out for 4 hours at 4° C. in the absence (total) or presence of 500 nM RAP, or 500 nM Mesd. In FIG. 8B, binding of^125I-Mesd (5 nM) to LRP6-transduced HT1080 cells was carried out for 2 hours at 4° C. in the absence (total) or presence of various concentrations of RAP or 500 nM Mesd. (C) LRP6-mediated ^125I-Mesd (5 nM) degradation was carried out for 4 hours at 37° C. in the absence or presence of 500 nM Mesd or 500 nM RAP. Values are the means of triple determinations with the s.d. indicated by error bars.
In order to investigate the binding of Mesd polypeptide and an Mesd oligopeptide to either LRP5 or LRP6, binding assays were performed using ^125I-Mesd or ^125I-DKK1 (FIG. 10).

T1 sequence (O75581 20-1613): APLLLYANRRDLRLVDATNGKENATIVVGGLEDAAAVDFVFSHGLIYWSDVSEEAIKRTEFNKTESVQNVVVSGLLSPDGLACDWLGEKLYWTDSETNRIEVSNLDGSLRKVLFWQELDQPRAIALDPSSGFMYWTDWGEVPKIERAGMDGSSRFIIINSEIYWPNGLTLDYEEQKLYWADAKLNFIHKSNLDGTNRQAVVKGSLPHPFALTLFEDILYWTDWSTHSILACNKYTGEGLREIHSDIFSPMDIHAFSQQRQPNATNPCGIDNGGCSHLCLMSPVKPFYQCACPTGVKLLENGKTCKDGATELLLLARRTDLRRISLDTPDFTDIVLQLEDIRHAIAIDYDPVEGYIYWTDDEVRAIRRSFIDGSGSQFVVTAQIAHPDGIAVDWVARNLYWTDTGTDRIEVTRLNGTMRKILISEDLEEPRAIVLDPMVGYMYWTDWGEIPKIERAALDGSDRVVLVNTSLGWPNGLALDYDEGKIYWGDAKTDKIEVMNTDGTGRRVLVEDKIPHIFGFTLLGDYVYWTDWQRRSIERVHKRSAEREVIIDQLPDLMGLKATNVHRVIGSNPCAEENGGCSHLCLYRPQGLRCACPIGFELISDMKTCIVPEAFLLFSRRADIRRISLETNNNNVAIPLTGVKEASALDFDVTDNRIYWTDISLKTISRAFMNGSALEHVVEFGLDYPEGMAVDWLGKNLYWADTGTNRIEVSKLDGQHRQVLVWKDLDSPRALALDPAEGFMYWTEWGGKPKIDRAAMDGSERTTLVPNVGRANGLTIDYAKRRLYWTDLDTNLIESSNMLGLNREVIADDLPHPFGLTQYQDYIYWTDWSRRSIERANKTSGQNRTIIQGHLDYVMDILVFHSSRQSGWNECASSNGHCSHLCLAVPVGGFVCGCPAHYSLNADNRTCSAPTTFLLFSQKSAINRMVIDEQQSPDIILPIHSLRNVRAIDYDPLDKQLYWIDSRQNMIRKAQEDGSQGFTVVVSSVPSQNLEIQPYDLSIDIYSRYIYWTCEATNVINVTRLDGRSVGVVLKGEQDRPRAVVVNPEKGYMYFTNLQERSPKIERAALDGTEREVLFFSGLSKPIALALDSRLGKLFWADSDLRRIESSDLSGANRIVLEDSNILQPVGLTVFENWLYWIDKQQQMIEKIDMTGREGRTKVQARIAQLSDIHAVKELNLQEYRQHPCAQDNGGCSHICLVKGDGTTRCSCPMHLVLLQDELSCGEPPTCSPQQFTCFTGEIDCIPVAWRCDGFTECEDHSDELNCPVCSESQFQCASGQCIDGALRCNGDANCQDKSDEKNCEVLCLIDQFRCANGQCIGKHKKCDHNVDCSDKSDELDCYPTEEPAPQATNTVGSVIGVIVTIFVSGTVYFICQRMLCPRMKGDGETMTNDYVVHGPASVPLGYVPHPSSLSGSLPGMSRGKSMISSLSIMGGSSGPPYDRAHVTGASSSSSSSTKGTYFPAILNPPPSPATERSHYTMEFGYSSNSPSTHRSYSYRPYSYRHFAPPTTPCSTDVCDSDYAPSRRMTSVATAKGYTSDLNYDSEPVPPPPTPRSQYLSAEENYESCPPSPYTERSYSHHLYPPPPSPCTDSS

B1: Mesd: Recombinant full-length mouse Mesd expressed in E. coli, N-terminal polyhistidine tail, lacking the signal peptide (protein)
chain: ADTPGEATPPPRKKKDIRDYNDADMARLLEQWEKDDDIEEGDLPEHKRPSAPIDFSKLDPGKPESILKMTKKGKTLMMFVTVSGNPTEKETEEITSLWQGSLFNANYDVQRFIVGSDRAIFMLRDGSYAWEIKDFLVSQDRCAEVTLEGQMYPGKGGGSKEKNKTKPEKAKKKEGDRKPRASKEDNRAGSRREDL
modifications: left off: small tags and cut ends
notes: Recombinant full-length mouse Mesd expressed in E. coli, N-terminal polyhistidine tail, lacking the signal peptide
B1: the “Binding of Myc-DKK1 to LRP6 at the cell surface” value with LRP6 [1] was “completely blocked”. For the same molecule, in the experiment with LRP6 [2], the “Effect on increased 125I-DKK1 binding of LRP6-expressing HT1080 cells” value is reported as “abolished”. Moreover, the “Inhibition of 125I-Mesd binding to cell surface LRP6” value in the experiment with LRP6 [3] (500 nM unlabeled competitor, 125I-Mesd 5 nM, 2 hours at 4° C.) is reported as above 90%. In the experiment with LRP6 [3] (500 nM unlabeled, 125I-Mesd 5 nM, 4° C.), the “Effect of excess unlabeled protein on 125I-Mesd binding” value is recorded as “completely eliminated this binding”. Further, in the experiment with LRP6 [3] (FIG. 10C, compared with LRP5), the “Reduction of binding of 125I-Mesd to LRP6” value is “even greater reduction”.
